Test system: chloroplasts of maize protoplasts
Experiment: Maize protoplast transient assay: microscopy of TraP8-YFP
Type: cell-based, Zea mays
Details: B104 maize protoplasts, 12 hours after transfection
Description: The Trap8 chimeric chloroplast transit peptide-encoding polynucleotide sequence (SEQ ID NO:5) and the linker-encoding polynucleotide sequence (SEQ ID NO:7) were cloned upstream of the yellow fluorescent protein gene and incorporated into construct pDAB106597 (FIG. 8) for testing via the maize protoplast transient in planta assay. The resulting constructs contained a single plant transcription unit (PTU). The PTU was comprised of the Zea mays Ubiquitin 1 promoter (ZmUbi1 promoter; Christensen, A., Sharrock R., and Quail P., (1992) Maize polyubiquitin genes: structure, thermal perturbation of expression and transcript splicing, and promoter activity following transfer to protoplasts by electroporation, Plant Molecular Biology, 18:675-689), TraP-yellow fluorescent protein fusion gene (TraP8-YFP; US Patent App. 2007/0298412), and Zea mays Peroxidase 5 3′ untranslated region (ZmPer5 3′UTR; U.S. Pat. No. 6,384,207). The constructs were confirmed via restriction enzyme digestion and sequencing.
Seed of Zea mays var. […]
Transfection of 100 to 500 μl of protoplasts (1−5×10^5) was completed by adding the protoplasts to a 2 ml microfuge tube containing about 40 μg of plasmid DNA (pDAB106597), at room temperature. […] Fluorescence of YFP was viewed by microscopy after 12 hours of incubation. […]

B1: TraP8: chimeric chloroplast transit peptide SEQ ID NO:3; N-terminus from Brassica napus EPSPS CTP, C-terminus from Brassica rapa (protein)
chain: MAQSSRICHGVQNPCVIISNLSKSNQNKSPFSVSLKTHQQQRRAYQISSWGLKKSNNGSVIRPVK
modifications: TraP8 chimeric chloroplast transit peptide
notes: N-terminus from Brassica napus EPSPS CTP, C-terminus from Brassica rapa
In the case of B1, the “Localization of YFP fluorescence in maize protoplasts” value is reported as “accumulated within the chloroplasts”.
